Assay results: patent US12624396B2, “Methods for alleviating facioscapulohumeral dystrophy (FSHD) by an antisense nucleic acid molecule inhibiting the expression of double homeobox 4 (DUX4)” (Fred Hutchinson Cancer Center, priority 2010, dated 2026)
“Also recorded” adds a separate entry of the source.

Legend:
[1] = test system: DUX4 core binding motif oligos (CSF1R, TRIM48); test: Electromobility shift assay with in vitro translated protein; design: species or system human; conditions: radiolabeled CSF1R and TRIM48 oligos, FIG. 15D
Protocol: EMSA was performed with ^32P-labeled 31-bp oligonucleotides from endogenous genomic sequences containing the putative DUX4 binding site as probes (sequences below; only forward shown). Radiolabeled probes were incubated with in vitro translated protein generated from pCS2-DUX4-fl or pCS2-DUX4-s^2 vectors using the TNT SP6 Coupled Wheat Germ Extract System (Promega) according to manufacturer's instructions. To obtain supershift of protein-DNA complexes, 0.1 μg of E14-3 anti-DUX4 rabbit monoclonal antibody was added to the mixtures. For competition experiments, excess unlabeled probes of either wild-type or mutant sequences were included in the binding reaction. The gels were prepared and run as previously described (Knoepfler et al., Nucleic Acids Res 27:3752-3761 (1999)).
Supershift with DUX4 antibody E14-3 confirmed the specificity of binding. […] (d) DUX4-s also binds the same core motifs; left, CSF1R; right, TRIM48. Supershift with anti-DUX4 N-terminus antibody E14-3 confirmed specificity of binding.

[2] = test system: DUX4 binding sites from TRIM48 and ZSCAN4; test: Luciferase assay, pGL3-promoter reporter with TRIM48 or ZSCAN4 DUX4 binding sites in RD cells; assay type: cell-based, human; conditions: RD cells co-transfected with DUX4-s alone; FIG. 16
Protocol: (§1) Transient DNA transfections of RD cells were performed using SuperFect (Qiagen) according to manufacturer specifications. Briefly, 3×10^5 cells were seeded per 35 mm plate the day prior to transfection. […] Cells were lysed 24 h post-transfection in Passive Lysis Buffer (Promega). Luciferase activities were quantified using reagents from the Dual-Luciferase Reporter Assay System (Promega) following manufacturer's instructions. Light emission was measured using BioTek Synergy2 luminometer. Luciferase data are given as the averages ±SD of at least triplicates.
The 31 bp DUX4 binding site from TRIM48 (SEQ ID NO:96) or ZSCAN4 (SEQ ID NO:97) were inserted into the luciferase reporter construct upstream of the SV40 promoter, as shown in FIG. 16A.
(A) reporter construct structure; Genomic fragments near the TRIM48 (B) and ZSCAN4 genes (C) containing DUX4 binding sites were cloned into pGL3-promoter reporter vector (schematic, top) and transfected into human rhabdomyoscaroma cell line RD. […] TRIM48mut and ZSCAN4mut, mutated binding sites. Luciferase activity was set relative to control.

[3] = target: T1, DUX4-fl (Homo sapiens, UniProt Q9UBX2); test: Luciferase assay, ZSCAN4 1.9 kb enhancer/promoter reporter, co-transfection of DUX4-fl and DUX4-s; assay type: cell-based; conditions: equal amounts of DUX4-fl and DUX4-s co-transfected in RD cells; FIG. 17C
T1 construct: expressed in transfected cells; host or cells: human rhabdomyosarcoma cell line RD, transient transfection with pCS2-DUX4-fl
T1 sequence (Q9UBX2 whole entry): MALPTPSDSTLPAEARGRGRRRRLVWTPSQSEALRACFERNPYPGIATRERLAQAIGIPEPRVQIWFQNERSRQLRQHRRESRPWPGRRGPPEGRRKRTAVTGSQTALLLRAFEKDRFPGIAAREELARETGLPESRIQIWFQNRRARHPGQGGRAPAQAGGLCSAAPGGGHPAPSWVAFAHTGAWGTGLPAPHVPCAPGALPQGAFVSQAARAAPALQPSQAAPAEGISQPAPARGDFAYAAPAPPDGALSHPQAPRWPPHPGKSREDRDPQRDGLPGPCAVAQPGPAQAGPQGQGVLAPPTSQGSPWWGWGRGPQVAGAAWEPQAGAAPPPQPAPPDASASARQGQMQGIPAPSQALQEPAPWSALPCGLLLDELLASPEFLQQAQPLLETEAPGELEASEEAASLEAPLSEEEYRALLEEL
Protocol: as §1
To determine whether DUX4 binding might directly regulate transcription of select genes, we cloned the 1.9 kb enhancer and promoter region of the ZSCAN4 gene that includes four DUX4 binding sites as follows: (DUX4 binding sites are underlined.)
The 1.9kb enhancer and promoter region of the ZCAN4 gene that includes the four DUX4 binding sites from ZCAN4 (SEQ ID NO:100) were inserted upstream of the luciferase reporter construct (pGL3 basic luciferase vector) as shown in FIG. 17A. […] Real-time RT-PCR quantitation is reported relative to internal standard RPL13a. All data represent mean+/−SD from at least triplicates.

[4] = test system: endogenous retroelement MaLR transcripts; test: MaLR expression analysis after lentiviral transduction of primary human myoblasts; assay type: cell-based; conditions: lentiviral transduction into primary human myoblasts; real-time RT-PCR relative to RPL13a; FIG. 17E
[5] = test system: DUX4-fl target genes in FSHD muscle cells; test: Knockdown of DUX4-fl targets in FSHD muscle cells by lentiviral DUX4-s; assay type: cell-based, human; conditions: FSHD cultured muscle cells transduced with lenti-DUX4-s, 48 hours of differentiation; real-time RT-PCR; FIG. 21
Protocol: Simultaneously, cells were transduced by lentivirus carrying DUX4-s or GFP along with 8 μg/mL polybrene. Cells were washed and changed to plain differentiation media after 24 hours. Cells were harvested for RNA after 48 hours of differentiation.
One microgram of total RNA was reverse transcribed into first strand cDNA in a 20 uL reaction using SuperScript III (Invitrogen) and digested with 1 U of RNase H (Invitrogen) for 20 min at 37° C. cDNA was diluted and used for quantitative PCR with iTaq SYBR Green supermix with ROX (Bio-Rad). The relative expression levels of target genes were normalized to those of ribosomal protein L13A (RPL13A) by 2^ΔCt. Undetermined values were equated to zero. Standard deviations from the mean of the ΔCt values were calculated from triplicates. PCR primers used for detecting the transcripts of the selected genes are listed in Supplementary methods.
Real-time RT-PCR quantitation of three DUX4 target genes, (A) PRAMEF1, (B) RFPL2 and (C) MBD3L2 in FSHD cultured muscle cells transduced with lenti-GFP or lenti-DUX4-s or untransduced. Abundance of targets was calculated relative to internal standard RPL13a and then set as percentages relative to the untransduced condition. Values represent mean+/−SEM from three independent experiments.

[6] = test system: control human muscle cells; test: Expression of DUX4-s in control human muscle cells, apoptosis/toxicity; assay type: cell-based; conditions: 48 hrs, data not shown
Source text: Both the mRNA analysis and the immunodetection indicate that approximately 0.1% of FSHD muscle nuclei express DUX4 mRNA and protein. This could represent transient bursts of expression or stochastic activation of expression that leads to cell death, or both. […] When DUX4 is expressed in control human muscle cells by lenti-viral delivery, the DUX4 protein is distributed relatively homogeneously during the first 24 hrs and then aggregates in nuclear foci at 48 hrs when the cells are undergoing apoptosis (data not shown). These DUX4 nuclear foci associated with apoptosis are present in the nuclei of FSHD muscle cultures.

[7] = test system: control human muscle cells; conditions: cultured human skeletal muscle cells; Geng et al. 2011; cited from earlier work

B1: DUX4-s: short splice form of DUX4 (SEQ ID NO:68) keeping the N-terminal double-homeobox domains, lacking the C-terminal domain; expressed from vector (protein, listed as Homo sapiens)
chain: MALPTPSDSTLPAEARGRGRRRRLVWTPSQSEALRACFERNPYPGIATRERLAQAIGIPEPRVQIWFQNERSRQLRQHRRESRPWPGRRGPPEGRRKRTAVTGSQTALLLRAFEKDRFPGIAAREELARETGLPESRIQIWFQNRRARHPGQGGRAPAQV
In the case of B1, the “binding to DUX4 core binding site (EMSA)” value [1] is reported as “specifically binds the same core binding site as DUX4-fl”, the “activation of luciferase expression” value [2] is reported as “did not activate expression” and the “effect on DUX4-fl induced luciferase activity” value [3] is reported as “diminishes luciferase activity; also recorded: interfered with the activity of DUX4-fl”. For the same molecule, the “upregulation of endogenous MaLR transcripts” value [4] was “No upregulation”, the “endogenous expression of DUX4-fl target genes (PRAMEF1, RFPL2, MBD3L2)” value [5] was “inhibited the endogenous expression of the target genes; also recorded: blocks expression of DUX4-fl target genes” and the induction of apoptosis [6] was “does not induce apoptosis”. The “toxicity of forced over-expression” value [7] was “not toxic”.
